From paper PMC7946940 (Nature Communications, 2021)
One block for each binder: values may come before it.

Key:
Conditions in all cases: both partners purified
[1] = molecular target: T1, VPS34 (subunit of complex II–BATS in the cryo-ET structure) (human, UniProt Q8NEB9 1-887); experiment: cryo-EM structure; cryo-ET and subtomogram averaging, 9.8 Å; 16 μM complex II–BATS on LUVs decorated with Rab5a–GTP
T1 construct: VPS34, human; source: Expi293F, transfected, purified within complex II–BATS

[2] = molecular target: T2, VPS15 (subunit of complex II–BATS in the cryo-ET structure) (human, UniProt Q99570 1-1358); experiment: as above
T2 construct: VPS15, human; source: Expi293F, transfected, purified within complex II–BATS
T2 sequence (Q99570 whole entry, one chain of several): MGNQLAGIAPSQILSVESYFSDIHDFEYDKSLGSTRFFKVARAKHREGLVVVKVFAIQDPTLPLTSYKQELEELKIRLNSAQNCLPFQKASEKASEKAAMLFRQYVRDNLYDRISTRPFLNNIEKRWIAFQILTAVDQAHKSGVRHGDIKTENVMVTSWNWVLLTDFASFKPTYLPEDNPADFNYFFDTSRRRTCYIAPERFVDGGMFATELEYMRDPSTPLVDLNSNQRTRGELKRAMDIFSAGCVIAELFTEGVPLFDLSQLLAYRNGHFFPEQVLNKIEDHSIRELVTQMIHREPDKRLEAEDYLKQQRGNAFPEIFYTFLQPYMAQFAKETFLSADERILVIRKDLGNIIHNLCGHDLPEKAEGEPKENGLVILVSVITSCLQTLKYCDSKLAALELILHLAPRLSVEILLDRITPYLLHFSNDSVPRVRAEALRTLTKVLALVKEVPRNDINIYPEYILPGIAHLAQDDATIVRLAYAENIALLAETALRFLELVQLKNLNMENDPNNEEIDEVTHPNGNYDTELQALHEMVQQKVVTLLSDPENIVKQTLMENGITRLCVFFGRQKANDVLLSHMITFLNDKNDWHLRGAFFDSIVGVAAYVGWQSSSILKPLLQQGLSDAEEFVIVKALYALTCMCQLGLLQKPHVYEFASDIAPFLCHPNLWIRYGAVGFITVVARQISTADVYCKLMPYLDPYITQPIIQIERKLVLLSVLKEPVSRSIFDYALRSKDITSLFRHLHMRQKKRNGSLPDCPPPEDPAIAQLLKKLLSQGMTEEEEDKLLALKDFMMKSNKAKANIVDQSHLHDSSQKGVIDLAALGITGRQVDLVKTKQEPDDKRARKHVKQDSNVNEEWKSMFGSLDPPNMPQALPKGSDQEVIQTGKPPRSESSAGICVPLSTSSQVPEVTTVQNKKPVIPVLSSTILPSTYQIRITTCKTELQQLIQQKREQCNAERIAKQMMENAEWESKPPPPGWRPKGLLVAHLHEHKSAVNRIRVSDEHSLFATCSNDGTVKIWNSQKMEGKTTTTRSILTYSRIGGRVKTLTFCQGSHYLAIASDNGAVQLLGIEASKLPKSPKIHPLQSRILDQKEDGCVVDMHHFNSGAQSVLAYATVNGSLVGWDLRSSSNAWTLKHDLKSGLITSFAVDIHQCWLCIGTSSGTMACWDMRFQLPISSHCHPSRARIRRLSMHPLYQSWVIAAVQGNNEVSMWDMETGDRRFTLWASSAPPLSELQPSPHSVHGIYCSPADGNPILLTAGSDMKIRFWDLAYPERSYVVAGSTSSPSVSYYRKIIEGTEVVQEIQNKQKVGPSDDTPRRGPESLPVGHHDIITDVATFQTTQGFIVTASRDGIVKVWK

[3] = molecular target: T3, human VPS34 complex II (VPS34/VPS15/Beclin 1/UVRAG) (human, UniProt Q8NEB9 1-887; Q99570 1-1358; Q14457 1-450; Q9P2Y5 1-699); experiment: vesicle flotation assay; GTP-loaded Rab coupled by its C-terminal Cys to PE-MCC in 100 nm LUVs; 1.8 mM LUVs and 2 μM VPS34 complex, 25 mM HEPES pH 8.0, 150 mM NaCl, 1 mM TCEP, 30 min on ice; sucrose gradient, fractions on SDS-PAGE
T3 construct: VPS34, human, subunit of complex II; VPS15, human, subunit of complex II; Beclin 1, human, subunit of complex II; UVRAG, human, subunit of complex II; Heterotetramer; Purified on IgG beads and released with TEV protease; also called endocytic complex II; source: Expi293F, transfected, purified (IgG beads, TEV protease elution, S200 gel filtration); copies: + + +
T3 sequence (Q8NEB9 whole entry, chain 1 of 4): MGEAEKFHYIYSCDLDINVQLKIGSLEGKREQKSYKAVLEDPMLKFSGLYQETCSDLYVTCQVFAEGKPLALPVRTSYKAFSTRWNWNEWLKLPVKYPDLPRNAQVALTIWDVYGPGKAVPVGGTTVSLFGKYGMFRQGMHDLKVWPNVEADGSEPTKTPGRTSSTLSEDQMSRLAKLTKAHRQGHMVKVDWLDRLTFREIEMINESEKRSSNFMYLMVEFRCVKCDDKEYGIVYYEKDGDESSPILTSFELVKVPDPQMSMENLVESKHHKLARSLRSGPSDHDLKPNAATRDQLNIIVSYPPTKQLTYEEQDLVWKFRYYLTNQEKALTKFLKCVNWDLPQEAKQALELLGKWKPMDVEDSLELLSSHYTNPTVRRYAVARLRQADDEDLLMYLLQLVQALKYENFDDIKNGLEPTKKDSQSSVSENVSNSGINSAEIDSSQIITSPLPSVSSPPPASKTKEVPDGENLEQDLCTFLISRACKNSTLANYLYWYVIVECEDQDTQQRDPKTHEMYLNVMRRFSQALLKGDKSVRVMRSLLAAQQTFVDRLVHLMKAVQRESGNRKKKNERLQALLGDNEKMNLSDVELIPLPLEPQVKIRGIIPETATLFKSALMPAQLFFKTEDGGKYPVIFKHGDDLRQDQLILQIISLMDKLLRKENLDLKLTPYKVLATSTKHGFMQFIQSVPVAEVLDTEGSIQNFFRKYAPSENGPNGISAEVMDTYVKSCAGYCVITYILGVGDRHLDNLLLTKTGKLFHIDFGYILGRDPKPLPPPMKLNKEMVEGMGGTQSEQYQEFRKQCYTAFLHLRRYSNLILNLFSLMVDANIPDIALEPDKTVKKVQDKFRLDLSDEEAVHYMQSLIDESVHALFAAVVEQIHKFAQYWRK
T3 sequence (Q99570 whole entry, chain 2 of 4): as the sequence (Q99570 whole entry, one chain of several) above
T3 sequence (Q14457 whole entry, chain 3 of 4): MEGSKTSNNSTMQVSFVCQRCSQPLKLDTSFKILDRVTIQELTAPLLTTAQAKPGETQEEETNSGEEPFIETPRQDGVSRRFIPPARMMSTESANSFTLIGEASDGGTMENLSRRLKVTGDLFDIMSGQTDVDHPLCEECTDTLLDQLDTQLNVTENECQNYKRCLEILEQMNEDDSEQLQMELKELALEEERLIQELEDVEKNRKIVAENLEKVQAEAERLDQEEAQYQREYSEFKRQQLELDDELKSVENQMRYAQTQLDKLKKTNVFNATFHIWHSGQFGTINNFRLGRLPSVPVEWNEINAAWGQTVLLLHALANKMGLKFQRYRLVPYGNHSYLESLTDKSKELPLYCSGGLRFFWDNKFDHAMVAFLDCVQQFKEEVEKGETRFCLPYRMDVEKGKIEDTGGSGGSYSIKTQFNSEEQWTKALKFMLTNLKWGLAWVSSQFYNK
T3 sequence (Q9P2Y5 whole entry, chain 4 of 4): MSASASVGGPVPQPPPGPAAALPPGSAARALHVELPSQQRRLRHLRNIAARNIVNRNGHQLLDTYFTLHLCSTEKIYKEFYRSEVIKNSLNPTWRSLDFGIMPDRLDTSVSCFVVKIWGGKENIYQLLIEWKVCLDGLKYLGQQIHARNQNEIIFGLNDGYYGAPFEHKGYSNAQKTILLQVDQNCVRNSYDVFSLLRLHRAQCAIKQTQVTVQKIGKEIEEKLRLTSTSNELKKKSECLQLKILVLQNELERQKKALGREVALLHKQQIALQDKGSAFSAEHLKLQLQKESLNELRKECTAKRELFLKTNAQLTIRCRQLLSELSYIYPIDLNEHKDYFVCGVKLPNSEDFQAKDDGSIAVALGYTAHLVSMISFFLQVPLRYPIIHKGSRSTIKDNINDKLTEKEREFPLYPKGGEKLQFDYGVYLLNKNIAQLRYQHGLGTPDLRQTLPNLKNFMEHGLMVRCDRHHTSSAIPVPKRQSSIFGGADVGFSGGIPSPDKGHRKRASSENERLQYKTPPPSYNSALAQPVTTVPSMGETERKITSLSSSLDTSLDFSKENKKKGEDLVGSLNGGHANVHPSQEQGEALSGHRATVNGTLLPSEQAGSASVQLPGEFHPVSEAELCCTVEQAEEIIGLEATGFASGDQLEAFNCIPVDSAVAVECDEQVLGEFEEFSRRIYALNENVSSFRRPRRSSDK

[4] = molecular target: T4, human VPS34 complex I (VPS34/VPS15/Beclin 1/ATG14L) (human, UniProt Q8NEB9 1-887; Q99570 1-1358; Q14457 1-450; Q6ZNE5 1-492); experiment: as above
T4 construct: VPS34, human, subunit of complex I; VPS15, human, subunit of complex I; Beclin 1, human, subunit of complex I; ATG14L, human, subunit of complex I; Heterotetramer; Purified on IgG beads and released with TEV protease; also called autophagy-specific complex I; source: Expi293F, transfected, purified (IgG beads, TEV protease elution, S200 gel filtration); copies: + + +
T4 sequence (Q8NEB9 whole entry, chain 1 of 4): as the sequence (Q8NEB9 whole entry, chain 1 of 4) above
T4 sequence (Q99570 whole entry, chain 2 of 4): as the sequence (Q99570 whole entry, one chain of several) above
T4 sequence (Q14457 whole entry, chain 3 of 4): as the sequence (Q14457 whole entry, chain 3 of 4) above
T4 sequence (Q6ZNE5 whole entry, chain 4 of 4): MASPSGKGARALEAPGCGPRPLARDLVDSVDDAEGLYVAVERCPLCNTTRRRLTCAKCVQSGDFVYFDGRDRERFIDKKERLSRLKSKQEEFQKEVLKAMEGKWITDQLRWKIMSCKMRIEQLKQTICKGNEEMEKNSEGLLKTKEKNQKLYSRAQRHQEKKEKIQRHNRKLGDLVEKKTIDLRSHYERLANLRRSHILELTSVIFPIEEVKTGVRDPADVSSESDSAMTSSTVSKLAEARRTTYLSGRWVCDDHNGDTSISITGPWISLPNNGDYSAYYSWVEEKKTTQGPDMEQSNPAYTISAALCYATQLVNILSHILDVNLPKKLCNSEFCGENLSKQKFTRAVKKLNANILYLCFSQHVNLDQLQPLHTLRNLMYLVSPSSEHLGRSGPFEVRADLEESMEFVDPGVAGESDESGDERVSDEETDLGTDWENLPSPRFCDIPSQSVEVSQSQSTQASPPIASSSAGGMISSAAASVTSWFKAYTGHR

[5] = molecular target: T3, human VPS34 complex II …; experiment: cross-linking; proximity-triggered cross-linking by the unnatural amino acid BrCO6K at Rab5a residue 84; 50–100 molar excess of Rab5a over complex II, 100–200 molar excess over VPS34; overnight at 4 °C; SDS-PAGE and mass spectrometry of the bands
human VPS34 alone = molecular target: T5, human VPS34 alone (human, UniProt Q8NEB9 1-887); experiment: as above
T5 construct: VPS34, human; printed mass 102 kDa; source: E. coli C41 (DE3), purified (Ni-NTA, heparin, gel filtration)
T5 sequence (Q8NEB9 whole entry): as the sequence (Q8NEB9 whole entry, chain 1 of 4) above

[6] = molecular target: T3, human VPS34 complex II …; experiment: HDX-MS; complex II (5 μM) alone or with 30 μM Rab5a-Q79L-GTP; 25 mM HEPES pH 8.0, 50 mM NaCl, 1 mM TCEP, room temperature; 3/30/300/3000 s

T1 sequence (Q8NEB9 whole entry, one chain of several): as the sequence (Q8NEB9 whole entry, chain 1 of 4) above

B1: Rab5a(1–212)-Q79L-C19S-C63S (natural protein, human, UniProt P20339 1-212, looked up)
chain: MASRGATRPNGPNTGNKISQFKLVLLGESAVGKSSLVLRFVKGQFHEFQESTIGAAFLTQTVSLDDTTVKFEIWDTAGLERYHSLAPMYYRGAQAAIVVYDITNEESFARAKNWVKELQRQASPNIVIALSGNKADLANKRAVDFQEAQSYADDNSLLFMETSAKTSMNVNEIFMAIAKKLPKNEPQNPGANSARGRGVDLTEPTQPTRNQC
modifications: C-terminal cysteine coupled covalently to a maleimide-conjugated lipid (PE-MCC) in the membrane
notes: Rab5a, human, residues 1–212; Loaded with GTP or GDP before coupling to GUVs or LUVs; also called Rab5a (Q79L); membrane-anchored Rab5a–GTP; source: E. coli C41(DE3)RIPL, purified (Ni-NTA, SUMO protease, size-exclusion chromatography); not shown: His-SUMO, N-terminal, cleaved
binding result [1]: binds
binding result [2]: binds
binding result [3]: binds
binding result [4]: binds

B2: Rab1a(1–204)-Q70L-C26S-C126S (natural protein)
chain: not shown
modifications: C-terminal cysteine coupled covalently to a maleimide-conjugated lipid (PE-MCC) in the membrane
notes: Loaded with GTP or GDP before coupling to GUVs or LUVs; also called Rab1a–GTP; Rab1a–GDP; source: E. coli C41(DE3)RIPL, purified (Glutathione Sepharose, TEV protease, HiTrap Q, heparin, size-exclusion chromatography); not shown: GST, N-terminal, cleaved
binding result [4]: binds

Now from value to binder:

binding result [5]: binds
binding result (human VPS34 alone): binds
B3: Rab5a S84BrCO6K (Rab5a_Q79L_1-212_C19S_C63S_S84TAG-His6) (natural protein, human, UniProt P20339 1-212, looked up)
chain: MASRGATRPNGPNTGNKISQFKLVLLGESAVGKSSLVLRFVKGQFHEFQESTIGAAFLTQTVSLDDTTVKFEIWDTAGLERYHKLAPMYYRGAQAAIVVYDITNEESFARAKNWVKELQRQASPNIVIALSGNKADLANKRAVDFQEAQSYADDNSLLFMETSAKTSMNVNEIFMAIAKKLPKNEPQNPGANSARGRGVDLTEPTQPTRNQC
modifications: BrCO6K (bromoalkyl-bearing lysine derivative, unnatural amino acid) at 84
notes: Rab5a, human, residues 1-212, amber codon at S84 read as BrCO6K; Loaded with GTP; Residue 84 is the lysine derivative BrCO6K, written as K; also called Rab5a–GTP–BrCO6K; Rab5a-84BrCO6K; source: E. coli DH10B, purified (Ni-NTA, size-exclusion chromatography)

binding result [6]: binds
B4: Rab5a(1-211)-Q79L (natural protein, human, UniProt P20339 1-211, looked up)
chain: MASRGATRPNGPNTGNKICQFKLVLLGESAVGKSSLVLRFVKGQFHEFQESTIGAAFLTQTVCLDDTTVKFEIWDTAGLERYHSLAPMYYRGAQAAIVVYDITNEESFARAKNWVKELQRQASPNIVIALSGNKADLANKRAVDFQEAQSYADDNSLLFMETSAKTSMNVNEIFMAIAKKLPKNEPQNPGANSARGRGVDLTEPTQPTRNQ
notes: Rab5a, human, last 4 residues (CCSN) deleted, residues 1-211; Loaded with GTP; used soluble for HDX-MS; also called Rab5a-Q79L-GTP; Rab5a (Q79L) loaded with GTP; source: E. coli C41(DE3)RIPL, purified (as Rab5a(1–212)); not shown: His-SUMO, N-terminal, cleaved
